{"source": "paper PMC8546227", "target": "Hoc^-Soc^- T4 phage capsid (bacteriophage T4) (UniProt P19896)", "sequence (P19896 whole entry, looked up, the tested form may be a part)": "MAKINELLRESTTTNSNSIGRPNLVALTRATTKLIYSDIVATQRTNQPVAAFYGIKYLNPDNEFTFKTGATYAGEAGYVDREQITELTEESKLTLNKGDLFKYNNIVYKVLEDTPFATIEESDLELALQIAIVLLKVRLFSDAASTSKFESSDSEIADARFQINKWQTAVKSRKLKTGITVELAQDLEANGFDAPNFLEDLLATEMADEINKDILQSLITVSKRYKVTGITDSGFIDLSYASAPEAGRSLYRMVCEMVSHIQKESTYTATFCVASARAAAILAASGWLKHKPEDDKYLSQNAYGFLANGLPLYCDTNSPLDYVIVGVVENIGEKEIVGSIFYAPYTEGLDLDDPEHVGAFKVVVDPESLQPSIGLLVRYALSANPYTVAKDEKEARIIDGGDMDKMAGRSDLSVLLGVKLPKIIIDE", "assay": "co-sedimentation", "data": [{"substance": "Soc-3M2e fusion protein (RB69 Soc with three tandem copies of M2e from human, swine and avian influe", "values": [{"measurement": "Kd", "result": 305, "unit": "nM"}]}]}
